From patent EP2105446A2

How the values were obtained:
[1] = molecular target: MPL-zalpha11 polypeptide chimera (MPL extracellular and TM domain fused to the zalpha11 intracellular signaling domain), expressed on BaF3 cells (human) (UniProt P40238); assay: cell-based or functional assay
[2] = molecular target: factor present in the activated CD3+ selected human T-cell conditioned media (human); assay: cell-based or functional assay

| proliferation of BaF3/MPL-zalpha11 cells (Alamar Blue) (fold over background) [1] | inhibition of BaF3/Zalpha11 cell growth (Alamar Blue), concentration giving complete inhibition [2] | titration of soluble receptor, lowest concentration giving complete inhibition of BaF3/Zalpha11 growth [2] | Substance |
| --- | --- | --- | --- |
| 10 | – | – | thrombopoietin (TPO) (ligand) |
| – | 10 µg/mL | 1.5 µg/mL | zalpha11-Fc4 (mutant) soluble receptor (zalpha11 extracellular domain fused C-terminally to human IgG/Fc) (from UniProt Q9HBE5 20-237) (Fc fusion) |
